# From the nanobody polyreactivity screen of Harvey et al. (2022)
# Experiment: yeast display, Sf9 membrane polyspecificity reagent, FACS + sequencing; frameworks hold sequencing errors
# How it was run: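 A nanobody's polyreactivity label depends on the gate it was sorted from. Yeast display cells were stained with 10% biotinylated, detergent-solubilized Sf9 membrane reagent for 1 hour at 4 °C, enriched on streptavidin microbeads and sorted by FACS. The low and high (top ~1%) gates were set on anti-HA fluorescence for expression and streptavidin fluorescence for reagent binding.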
row,Sequence,polyreactivity (PSR sort gate)
1,QVQLVESGGGLVQAGGSLRLSCDASGIIFRGNSMGWYRQAPGKERELVAAISRSGRTNYADSVKGSFTISRDNAKNTVYLQMYSLKPEDTAVYYCAVDKRYGRVFGRDYDYWGQGTQVTESS,high polyreactivity
2,QVHLVESGGGLVQAGGSLRLSCAASGRTFRSYAMGWYRQAPGKERELVAAISWSGGSTYYADSVKGRFTISRDNAKNTVYLQMNSLKPEDTAVYYCAASYFYFPYTSDEGYWGQGTQVTVSS,high polyreactivity
3,QVQLVESGGGLVQAGGSLRLSCAASGIILYPYFMGWYIQAPGKERELVAAISYSGGSTYYADSVKGRFTISGDNAKNTVYLQMNSLKPEDTAVYYCAAVPVTSQTKYGYWGQGTQVTVSS,high polyreactivity
4,QVQLVESGGGLVQAGGSLRLSCAASGSTFQGYAMGWYRQAPGKERELVAVINRSGTNTYYADSVKGRFTISRDNAKNTVYLQMNSLKPEDTAVYYCNAQPSSKPPTYYYWGQGTQVTVSS,high polyreactivity
5,QVQLVESGGGLVQAGGSLRLSCAASGSIFDVYAMGWYRQAPGKERELVATISNSAGSTYYADSVKGRFTISRDNAKKTVYLQMNSLKPEDTAVYYCAAVVLYFEEYDYWGQGTQVTVSS,low polyreactivity
6,QDQLEETGGGLVHAGGSLRLSCAASGRTFVVYDMGWYRQAPGKERELVAGIRWRGGSTYYADSVKGRFTISRDNAKNSVYLQMNSLKPVDTAVYYCAADVYLVKYDYWGQGTQVTVSS,low polyreactivity
7,QVQLEESGGGLVQAGGSLRLSCAASGLICVLYTMGSYRQAPGKERELVATINWGGGNTYYADSVKGRFTISRDNAKNTVYLQMNSLKPEDTAVYYCAAAYTWYGYSQAYYYWGQGTQVTVSS,low polyreactivity
8,QVQLVESGGGLVQAGGSLRLSCAASGRIFSNNAMGWYRQAPGKERELVAAISSSGSTYYADSVKGRFTISRDNAKNTVYLQMNSLKPEDTAVYYCAVVYGYPYLRGYVYGFNYWGQGTQVTVSS,low polyreactivity
9,QVQLVESGGGLVQAGGSLRLSCAASGRIFGDYGMGWYRQAPGKERELVAAITDRGGPTYYADSVKGRFTISRDNAKNTVYLQRNSLKPEDTAVYYCNARQSDIFDYDYWGQGTQVTVSS,low polyreactivity
10,QVQLVESGGVLVEAGGSLRLSCASSGRIFTYYSMGWYRQAPGKERELVAAISRSGRTYYADSVKGRFTISRDNAKNTVYLQMNSLKPEDSAVYFCAAEYYYSWFEYWGQGTQVTVSS,high polyreactivity
11,QVQLVESGGGLVQAGGSLRLSCAASGYTYGTYDMRWYRQAPGKERELVAAFSIGGSTNYADSVKGRFTISRDNAKNTVYLQMNSLKPEDTAVYYCAAEVNVGTLLLSVIVEDGDYWGQGTQVTVSS,low polyreactivity
12,QVQLVESGGGLVQAGGSLRLSCAASGITSSYAMGWYRQAPGKERALVAAISRGGSTYYADSVKGRFTISRDNAKNTVSLQMNSLKPEDTAVYYCNKRRYPYGWGQGTQVTVSS,high polyreactivity
13,QVQLVESVGGLVQAVGSLRLSCAASGRTFRHNAMGWYRQAHGKVRELVAAISSSGTNTHYADSVKGRFTISRDIAKNTVYLQMNSLQPEDTAVYYCAADRWGARRNQYHENGYWGQGTQVTVSS,high polyreactivity
14,QVQLVESWGGLVQAGGSLRLSCAASGRTFRLYAMGWYRQAPGKERELVATNTSTGSTNYADSVKGRFTISRDNAKNTVFLQMNSLKPDDTAVYYCNAAWYNPKSWTQYPPFDYWGQGTQVTVSS,high polyreactivity
15,QVQLVESGGGLVQAGGSLRLSCAASGRIFRLYAMGWYRQAPGKERELVASISKSGGSTYYADSVKGRFTISRDNAKNTVYLQMNSLKPADSAVYYCAADYRTHGGYEGTFDYWGQGTQVTVSS,low polyreactivity
16,QVQLVESGGGIVQAGGSLRLSCAASGSTFSYNAMGWDRQAPGKERELVAAITSRGGSTRYADSVKGRFTISRDNAKNTVYLQMNSLKPEDTAVYYCARPYSYYPYSTVNYWGQGTQVTVSS,high polyreactivity
17,QVQLVESGGGLVQAGGSLRLSCAAYGSTLNRNVMGWYRQAPGKERELVAVITYGVGSTYYADSVKGRFTISRDNAKNTVYLQMNSLKPEDTAVYYCNKDPLVFDYWGQGTQVTVSS,low polyreactivity
18,QVQLVESGGGLVQAGGSLRLSCAASGSTFWFYAMRWYRQAPGKERELVAAITRSAGSTYYADSVKGRFTISRDNAKNTVYLQMNSLKPEDTAVYYCAAQRESLYGGFDYWGQGTQVTVSS,low polyreactivity
19,QVQLLESGVGLVQAGGSLRLSCAASGNTFYHYAMGLYRQAPGKERELVAAISLSGGSTYYADSVKGRFTISRDNAKNTVYLQMNSLKPEDTAVYYCAADIFYYSSSYGYWGQGTQVTVST,low polyreactivity
20,QVQLVESGGGLVQAGGSLRLSCAASGSTFNINVMGWYRQAPGKERELVASISTGDITYYADSVKGRFTISRDNAKNTVYLQMNSLKPEDTAVYYCNAEDDLYWWVWYAVGEEYWGQGTQVTVSS,low polyreactivity
21,QVQLVESGGGLVQAGGSLRLSCAASGRTFVQNAMGWYRQAPGKERELVASIRYRDGSTYYADSVKGRFTISRDNAKNTVYLQMNSLKPEDTAVYYCAAYLPGWELREYGYWGQGTQVTVSS,high polyreactivity
22,QVQLVESGGGLVQAGGSLRLSCAASGRTFKAYAMGWYRQAPGKERELVAAISYSTTSTYYADSVKGRFTISRDNAKNTVYLQMNSLKPEDTAVYYCAVDYIIWYDGYLLYYWGQGTQVTVSS,low polyreactivity

row,Sequence,polyreactivity (PSR sort gate)
1,QVQLVESGGGLVQAGGSLRLSCAASGRIFARNAMGWYIQAPWKERELVAAISWTGDSTYYADSVKGRFTISRDNAKNTVYLQMNSLKPEDTAVYYCNALVYHTKGDYGYWGQGTQVTVSS,low polyreactivity
2,QVHLVDSGGGLVQAGGSLRLSCAASGFIFSKYAMGWYRQAPGKERELVAAISWNGGSTYYADSVKGRFTISRDNAKNTVYLQMNSLKPEDTAVYYCNARGRYRKSERRAFDYWGQGTQVTVSS,high polyreactivity
3,QVQLVESGGGLVQAGGSLRLSCAASARIFGWNAMGWYRQAPGKERELVAAISWRGGSTYYADSVKGRFTISRDNAKNTVYLQMNSLKPEDTAVYYCNALYTRYVSQWFGYWGQGTQVTVSS,high polyreactivity
4,QVQLVESGGGLVQAGGSLRLSCAASGSIFYVNAMGWYRQEPGKERELVAAISYRGGSTYYADSVKGRFTISRDNAKNTVYLQMNSLKPEDTSVYYCAKRLYGSYHSDYWGQGTQVTVSS,high polyreactivity
5,QVQLVESGGGLVQAGGSLRLSCAASGSTLQINGMGWYRQAPGKERELVAAISIGGDTNYADSVKGRFTISRDNAMNTVSLQMNSLKPEDTAVYYCAASGAYDEAYGEAFYYWGQGTQVIVSS,low polyreactivity
6,QVQLVESGGGIVQAGGSLRLRCAASGFIFAVNAKGWYRQAPGKESELVAAISSSGTTNYADSVKGRFTISRDNAKNTVYLQMNSLKPEDTAVYYCNKRWRDKYPQYDYWGLGTQVTVSS,low polyreactivity
7,QVQLVESGGGLVQAGGSLRLSCAASGSIFQQYAMGWYRQAPGKERELVAAISWGDGSTYYADSVKGRFTISRDNAKNTVYLQKNSLKPEDTAVYYCNAYASAPLWSLEDDYWGQGTQVTVSS,low polyreactivity
8,QVQLVESGGGLVQAGGSLRLSCAASGITFEYYAMGWYRQAPGKERELVAAIDTGGSTNYADSVKGRFTISRDNAKNTVYLQMNSLKPEDTAVYYCAADWSWWDGEDYHFEVDYWGQGTQVTVSS,low polyreactivity
9,QVQLVESGGGLVQAGGSLRLSCAASGITLSSNAMGWYRQAPGKERELVAAITWRTDRTYYADSVKGRFTISRDNAKNTVYLQMNSLKPEDTAVDYCAARTTVSSARYDYWGQGTQVTVSS,high polyreactivity
10,QVQLVESGGGLVQAGGSLRLSCAASGSTFLYYTMGWYRQAPGKERELVAAITSGGDTNYADSVKGRFTISRDNAKNTVYLQINSLKPEDTAVYYCNAEYTWSGTKIYTYKYDYWGQGTQVTVSS,low polyreactivity
11,QVQLLESGGGLVQAGGSLRLSCAASGLIVSEYAMGWYRQAPGKERELVAAIRSDGGSTYYADSVKGRFTISRDNAKNTVYLQMNSLKPEDTAVYYCNAPYRRSAKFRRYGYDYWGQGTQVTVSS,high polyreactivity
12,QVQLVESGGGLVQAGGSLRLSCAASGSTFYSNVMGWYRQAPGKERELVAAISQSGGRTFYADSVKGRFTISRDNAKNTVYLQMNSLIPEDTAVYYGNYVRAQPRNPYDYWGQGTQVTVSS,high polyreactivity
13,QVKLVESGGGLVQAGGSLRLSCAASGFTFDKYAMGWSRPEPGKERELVATISRRGGSTYYADSVKGRFTISRDNAKNTVYLQMNSLKPEDTAVYYCAKVRYYYSPYREFDYCGQGTQVTVSS,high polyreactivity
14,QVQLVESGGGLVQAGGSLRLSCAASGSIFNPYDMGWYRQAPGKERELVATISGGGGSTYYADSVKGRFTISRDNAKNTVYLQMNSLKPEDTAVYYCNKTDFNTNDLKFDYWGQGTQVTVSS,low polyreactivity
15,QVQLVESGGGLVQAGGSLRLSCSASGIIFSTYAKGWYRQAPGKERELVAAITSTGSTNYADSVKGRFTISRDNAKNTVYLQLNSLKPEDTAVYYCAARYAGPSPTDTGHDYWGQGTQVTVSS,low polyreactivity
16,QVQLVESGGGLVQAGGSLRLSCAASGGTFARNAMGWYRQAPGKERELVAAIRGGVSTNYADSVKGRFTISRDNAKNTVYLQMNSLKPEDTAVYYCNASPPTLEGYWGQGTQVTVSS,low polyreactivity
17,QGQLVESGGGLFQAGGSLSLSCASSGRTITHNVMGWYRQAPGKEMELVAGISSTGGSTYYADSVKGRFTISRDNSKNTVYLQMNSLKPEDTAVYYCAKEYYDGYFPSFDYEYWGQGTQVTVSS,low polyreactivity
18,QVQLVESGGGLVQAGGSLRLTCAASGIIFYPYAMGWYRQAPGKERELVAAISIGGGSTYYADSVKGRFTISRDNAKNTVYLQMNSLKPEDTAVYYCAAGTPYGILGYYYWGQGTQVTVSS,low polyreactivity
19,QVQLVESGGGLVQAGGSLRLSCAASGSTFDLYAMGWYRQAPGKEREFVASISWRGTNTYYADSVKGRFTISRDNAKNTVYLQMISLKPEDTAVYYCYAVRGWTTRYDYWGQGTQVTVSS,high polyreactivity
20,QVQLVESGGGLVQAGGSLRISCAASGRIFNSYAMGWYRQAPGKERELVASISTSGGSTYYADSVKGRFTISRDNAKNTVYLQMNSLKPEDTAVYYCARRYYPKFWYTYDSWGQGTQVTVSS,low polyreactivity
21,QVQLVESGGGLVQAGGSLRLSCAASGRTFGDYAKGWYRQAPGKERELVAAISKSGGITYYADSVKGRFTISRDNAKNTVYLQMNSLKPEDTAVYYCAARRSGEGNYWGQGTQVTVSS,high polyreactivity
